The sequences below were run on Escherichia coli TOP10 (assay: shrunken log2 fold change of peptide-encoding DNA abundance (4.5 h post-induction vs induction); higher = less antimicrobial activity (less host growth inhibition)). Details: time post-induction: 4.5 h; library: site-saturation at positions 5, 18, 19, 20.
In the case of RRIRARPPRLPRPRPRPYYTPRP, the “shrunken log2 fold change” value is reported as -0.762.
For RRIRFRPPRLPRPRPRPISMPRP, the “shrunken log2 fold change” value was -0.137.
In the case of RRIRKRPPRLPRPRPRPFGIPRP, the “shrunken log2 fold change” value is reported as -0.00674.
In the case of RRIRPRPPRLPRPRPRPWGQPRP, the “shrunken log2 fold change” value is reported as 0.0568.
In the case of RRIRYRPPRLPRPRPRPVPCPRP, the “shrunken log2 fold change” value is reported as -0.226.
RRIRVRPPRLPRPRPRPYPAPRP was tested, and the “shrunken log2 fold change” value was -0.715.
In the case of RRIRQRPPRLPRPRPRPGWRPRP, the “shrunken log2 fold change” value is reported as 2.71.
RRIRARPPRLPRPRPRPGSFPRP was tested, and the “shrunken log2 fold change” value was 0.495.
RRIRKRPPRLPRPRPRPDCGPRP was tested, and the “shrunken log2 fold change” value was 0.016.
With RRIRGRPPRLPRPRPRPYSDPRP the “shrunken log2 fold change” value was -0.11.
With RRIRLRPPRLPRPRPRPCVPPRP the “shrunken log2 fold change” value was -0.208.
RRIRARPPRLPRPRPRPMRDPRP was tested, and the “shrunken log2 fold change” value was 1.04.
With RRIRSRPPRLPRPRPRPQLQPRP the “shrunken log2 fold change” value was 0.104.
With RRIRCRPPRLPRPRPRPWFYPRP the “shrunken log2 fold change” value was -0.758.
With RRIRRRPPRLPRPRPRPSNLPRP the “shrunken log2 fold change” value was 0.112.
RRIRVRPPRLPRPRPRPWMRPRP was tested, and the “shrunken log2 fold change” value was 0.731.
With RRIRHRPPRLPRPRPRPQCFPRP the “shrunken log2 fold change” value was -0.0477.
For RRIRYRPPRLPRPRPRPQEYPRP, the “shrunken log2 fold change” value was -0.00804.
With RRIRIRPPRLPRPRPRPRGVPRP the “shrunken log2 fold change” value was 0.0556.
RRIRYRPPRLPRPRPRPHAMPRP was tested, and the “shrunken log2 fold change” value was -0.221.
With RRIRIRPPRLPRPRPRPYRDPRP the “shrunken log2 fold change” value was -0.0075.
RRIRWRPPRLPRPRPRPWWWPRP was tested, and the “shrunken log2 fold change” value was 0.12.
RRIRGRPPRLPRPRPRPYRVPRP was tested, and the “shrunken log2 fold change” value was -0.0183.
RRIRERPPRLPRPRPRPLNCPRP was tested, and the “shrunken log2 fold change” value was -1.25.
With RRIRARPPRLPRPRPRPVFWPRP the “shrunken log2 fold change” value was 0.699.
In the case of RRIRPRPPRLPRPRPRPVIHPRP, the “shrunken log2 fold change” value is reported as -0.435.
In the case of RRIRNRPPRLPRPRPRPCYFPRP, the “shrunken log2 fold change” value is reported as -0.408.
With RRIRVRPPRLPRPRPRPMDRPRP the “shrunken log2 fold change” value was -0.308.
In the case of RRIRERPPRLPRPRPRPKFAPRP, the “shrunken log2 fold change” value is reported as -0.139.
In the case of RRIRNRPPRLPRPRPRPVDGPRP, the “shrunken log2 fold change” value is reported as -0.175.
With RRIRMRPPRLPRPRPRPGDSPRP the “shrunken log2 fold change” value was 0.557.
RRIRCRPPRLPRPRPRPPTAPRP was tested, and the “shrunken log2 fold change” value was 0.272.
RRIRGRPPRLPRPRPRPLHVPRP was tested, and the “shrunken log2 fold change” value was -0.0922.
For RRIRARPPRLPRPRPRPYRSPRP, the “shrunken log2 fold change” value was -0.51.
For RRIRIRPPRLPRPRPRPTFAPRP, the “shrunken log2 fold change” value was -0.176.
RRIRRRPPRLPRPRPRPFENPRP was tested, and the “shrunken log2 fold change” value was 0.0967.
RRIRMRPPRLPRPRPRPGWLPRP was tested, and the “shrunken log2 fold change” value was 0.533.
For RRIRQRPPRLPRPRPRPQNGPRP, the “shrunken log2 fold change” value was 0.111.
With RRIRQRPPRLPRPRPRPVFRPRP the “shrunken log2 fold change” value was -0.0986.
For RRIRRRPPRLPRPRPRPHSWPRP, the “shrunken log2 fold change” value was 0.333.
In the case of RRIRMRPPRLPRPRPRPYGMPRP, the “shrunken log2 fold change” value is reported as 0.162.
For RRIRHRPPRLPRPRPRPIHTPRP, the “shrunken log2 fold change” value was 0.00096.
With RRIRIRPPRLPRPRPRPSTLPRP the “shrunken log2 fold change” value was -0.726.
For RRIRNRPPRLPRPRPRPQGIPRP, the “shrunken log2 fold change” value was -0.216.
RRIRVRPPRLPRPRPRPSILPRP was tested, and the “shrunken log2 fold change” value was -0.312.
In the case of RRIRGRPPRLPRPRPRPSTWPRP, the “shrunken log2 fold change” value is reported as 0.22.
With RRIRTRPPRLPRPRPRPPKVPRP the “shrunken log2 fold change” value was 0.286.
With RRIRTRPPRLPRPRPRPLNFPRP the “shrunken log2 fold change” value was -0.446.
In the case of RRIRMRPPRLPRPRPRPPQPPRP, the “shrunken log2 fold change” value is reported as 1.37.
With RRIRFRPPRLPRPRPRPALKPRP the “shrunken log2 fold change” value was -0.0754.
With RRIRDRPPRLPRPRPRPENQPRP the “shrunken log2 fold change” value was 0.351.
RRIRTRPPRLPRPRPRPMKRPRP was tested, and the “shrunken log2 fold change” value was 0.298.
With RRIRWRPPRLPRPRPRPPHQPRP the “shrunken log2 fold change” value was 0.235.
With RRIRWRPPRLPRPRPRPGRAPRP the “shrunken log2 fold change” value was 0.71.
RRIRMRPPRLPRPRPRPFKTPRP was tested, and the “shrunken log2 fold change” value was -0.117.
For RRIRHRPPRLPRPRPRPTYHPRP, the “shrunken log2 fold change” value was -0.514.
With RRIRCRPPRLPRPRPRPNGGPRP the “shrunken log2 fold change” value was -0.00453.
For RRIRRRPPRLPRPRPRPLWIPRP, the “shrunken log2 fold change” value was -0.22.
For RRIRFRPPRLPRPRPRPVDTPRP, the “shrunken log2 fold change” value was -0.123.
In the case of RRIRLRPPRLPRPRPRPTFNPRP, the “shrunken log2 fold change” value is reported as -0.289.
For RRIRSRPPRLPRPRPRPAQEPRP, the “shrunken log2 fold change” value was 0.0123.
RRIRPRPPRLPRPRPRPAWDPRP was tested, and the “shrunken log2 fold change” value was 0.431.
With RRIRCRPPRLPRPRPRPNERPRP the “shrunken log2 fold change” value was 0.0333.
In the case of RRIRMRPPRLPRPRPRPQHNPRP, the “shrunken log2 fold change” value is reported as -0.605.
With RRIRNRPPRLPRPRPRPCNCPRP the “shrunken log2 fold change” value was -0.00865.
For RRIRDRPPRLPRPRPRPGQTPRP, the “shrunken log2 fold change” value was 0.032.
In the case of RRIRIRPPRLPRPRPRPDPHPRP, the “shrunken log2 fold change” value is reported as -0.314.
In the case of RRIRQRPPRLPRPRPRPHTKPRP, the “shrunken log2 fold change” value is reported as -0.213.
With RRIRPRPPRLPRPRPRPEGQPRP the “shrunken log2 fold change” value was 0.798.
With RRIRPRPPRLPRPRPRPTTYPRP the “shrunken log2 fold change” value was -0.141.
RRIRLRPPRLPRPRPRPWKVPRP was tested, and the “shrunken log2 fold change” value was 0.0854.
With RRIRARPPRLPRPRPRPSDIPRP the “shrunken log2 fold change” value was -0.0794.
In the case of RRIRTRPPRLPRPRPRPPLNPRP, the “shrunken log2 fold change” value is reported as -0.183.
For RRIRKRPPRLPRPRPRPNRSPRP, the “shrunken log2 fold change” value was -0.0169.
With RRIRERPPRLPRPRPRPNDDPRP the “shrunken log2 fold change” value was -0.121.
RRIRWRPPRLPRPRPRPDWNPRP was tested, and the “shrunken log2 fold change” value was 0.0393.
With RRIRFRPPRLPRPRPRPQWQPRP the “shrunken log2 fold change” value was -0.08.
In the case of RRIRHRPPRLPRPRPRPCQQPRP, the “shrunken log2 fold change” value is reported as -0.0541.
In the case of RRIRRRPPRLPRPRPRPCKCPRP, the “shrunken log2 fold change” value is reported as -0.01.
RRIRQRPPRLPRPRPRPGLTPRP was tested, and the “shrunken log2 fold change” value was -0.483.
For RRIRVRPPRLPRPRPRPLDPPRP, the “shrunken log2 fold change” value was -0.258.
With RRIRYRPPRLPRPRPRPTFRPRP the “shrunken log2 fold change” value was -0.0396.
RRIRWRPPRLPRPRPRPHVIPRP was tested, and the “shrunken log2 fold change” value was -0.13.
For RRIRSRPPRLPRPRPRPRCGPRP, the “shrunken log2 fold change” value was 0.34.
With RRIRIRPPRLPRPRPRPRIDPRP the “shrunken log2 fold change” value was -0.0642.
In the case of RRIRVRPPRLPRPRPRPYMIPRP, the “shrunken log2 fold change” value is reported as -0.904.
In the case of RRIRQRPPRLPRPRPRPLDTPRP, the “shrunken log2 fold change” value is reported as -0.144.
With RRIRGRPPRLPRPRPRPQCKPRP the “shrunken log2 fold change” value was 0.165.
For RRIRDRPPRLPRPRPRPSFVPRP, the “shrunken log2 fold change” value was -0.0915.
RRIRFRPPRLPRPRPRPPMGPRP was tested, and the “shrunken log2 fold change” value was -0.00833.
For RRIRYRPPRLPRPRPRPMHRPRP, the “shrunken log2 fold change” value was -0.0541.
RRIRHRPPRLPRPRPRPCLIPRP was tested, and the “shrunken log2 fold change” value was -0.11.
RRIRPRPPRLPRPRPRPKACPRP was tested, and the “shrunken log2 fold change” value was 0.255.
RRIRKRPPRLPRPRPRPSIPPRP was tested, and the “shrunken log2 fold change” value was -1.13.
RRIRTRPPRLPRPRPRPYSHPRP was tested, and the “shrunken log2 fold change” value was -0.04.
RRIRFRPPRLPRPRPRPEHRPRP was tested, and the “shrunken log2 fold change” value was 0.105.
For RRIRGRPPRLPRPRPRPARRPRP, the “shrunken log2 fold change” value was 0.739.
For RRIRHRPPRLPRPRPRPGGAPRP, the “shrunken log2 fold change” value was 0.311.
For RRIRIRPPRLPRPRPRPACTPRP, the “shrunken log2 fold change” value was 0.242.
With RRIRVRPPRLPRPRPRPMHFPRP the “shrunken log2 fold change” value was -0.409.
With RRIRERPPRLPRPRPRPPKWPRP the “shrunken log2 fold change” value was -0.176.
RRIRKRPPRLPRPRPRPWTSPRP was tested, and the “shrunken log2 fold change” value was -0.113.
With RRIRMRPPRLPRPRPRPDLPPRP the “shrunken log2 fold change” value was -0.0325.
For RRIRDRPPRLPRPRPRPGGSPRP, the “shrunken log2 fold change” value was 0.25.
RRIRMRPPRLPRPRPRPGAFPRP was tested, and the “shrunken log2 fold change” value was 0.611.
With RRIRTRPPRLPRPRPRPLHAPRP the “shrunken log2 fold change” value was 0.143.
RRIRHRPPRLPRPRPRPIFFPRP was tested, and the “shrunken log2 fold change” value was 0.0211.
With RRIRCRPPRLPRPRPRPEAIPRP the “shrunken log2 fold change” value was 0.117.
With RRIRKRPPRLPRPRPRPLFSPRP the “shrunken log2 fold change” value was -0.0137.
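Note: peptides expressed intracellularly from a pBAD plasmid library in pooled LB shake-flask culture, induced with 0.3% L-arabinose, DNA abundance read by NGS, three biological replicates, DESeq2 with apeglm shrinkage.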
